# Experimental data: patent US20170184604A1, “DD1ALPHA RECEPTOR AND USES THEREOF IN IMMUNE DISORDERS” (THE GENERAL HOSPITAL CORPORATION, priority 2014, published 2017)
# Tests used:
# PD-1 [1] = target: T1, PD-1 (Homo sapiens, UniProt Q15116); test: Ig fusion protein staining of 293T transfectants (flow cytometry); assay type: binding; details: cell surface staining
# T1 construct: full length human PD-1 and Tim3 cDNA (Sino biological) were cloned into pcDNA3.1(−) tagged with HA at C-terminus; host or cells: HEK293T
# T1 sequence (Q15116 25-288): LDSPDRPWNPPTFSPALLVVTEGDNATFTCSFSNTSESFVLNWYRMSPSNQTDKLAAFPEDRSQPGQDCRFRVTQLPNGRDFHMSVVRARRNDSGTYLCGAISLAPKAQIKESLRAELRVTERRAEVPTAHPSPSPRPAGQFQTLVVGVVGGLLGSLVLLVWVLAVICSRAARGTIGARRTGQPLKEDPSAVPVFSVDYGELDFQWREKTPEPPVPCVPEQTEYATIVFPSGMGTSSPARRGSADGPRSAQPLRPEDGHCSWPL
# Method: (§1) The bound Ig fusion proteins were detected with anti-Ig-APC. Empty vector (pcDNA3.1)-transfected cells stained with Ig proteins are shown as a negative control (gray filled) and other staining is shown as black open. […] Purified CD4+ T cells from Wt and DD1α−/− mice were assayed for binding to Ig fused DD1α or PD1 proteins. […] The bound Ig fusion proteins were detected by anti-Ig-APC. Binding amounts were determined by percentage of APC positive cells compared to control Ig protein-bound cells. […] The bead bound proteins were eluted and determined by western blot analysis using anti-HA antibody (asterisks). […] The bead bound proteins were eluted and detected by western blot analysis with anti-DD1α or anti-PD1 antibody (asterisk). […] MCF7 cells were treated by Nutlin-3 (10 μM) for 1 to 3 days. MCF7 cells were transfected with control siRNA or p53 siRNA for 24 hours and treated with CPT (500 nM) or DMSO (control) for 1 and 2 days. The levels of indicated proteins were analyzed by western blot analysis. Total RNAs from control siRNA or p53 siRNA transfected MCF7 cells were assessed for mRNA levels of PD1 or PD-L1 by real-time quantitative PCR.
# TIM-3 = target: T2, TIM-3 (Homo sapiens, UniProt Q8TDQ0); test: as above; assay type: binding; details: cell surface staining
# T2 construct: full length human PD-1 and Tim3 cDNA (Sino biological) were cloned into pcDNA3.1(−) tagged with HA at C-terminus; host or cells: HEK293T
# Method: as §1
# PD-1 [2] = target: T1, PD-1; test: Ig fusion protein-pull down assay; assay type: binding
# Method: FIGS. 6A-6E show physical association of DD1α with PD1 but not with PD-L1. (FIG. 6A) Interaction of DD1α with PD1 or DD1α. […] The bound Ig fusion proteins were detected with anti-Ig-APC. Empty vector (pcDNA3.1)-transfected cells stained with Ig proteins are shown as a negative control (gray filled) and other staining is shown as black open. (FIG. 6B) DD1α binds to both DD1α and PD1 on CD4+ T cells. Purified CD4+ T cells from Wt and DD1α−/− mice were assayed for binding to Ig fused DD1α or PD1 proteins. Cells were incubated with DD1α-Ig (open), PD1-Ig (open), or control Ig proteins (gray filled) and the bound Ig fusion proteins were detected by anti-Ig-APC. […] The bound Ig fusion proteins were detected by anti-Ig-APC. Binding amounts were determined by percentage of APC positive cells compared to control Ig protein-bound cells. (FIG. 6C) Ig-pulldown experiments show DD1α interaction with both DD1α and PD1. […] The bead bound proteins were eluted and determined by western blot analysis using anti-HA antibody (asterisks). […] The bead bound proteins were eluted and detected by western blot analysis with anti-DD1α or anti-PD1 antibody (asterisk). […] The levels of indicated proteins were analyzed by western blot analysis. Total RNAs from control siRNA or p53 siRNA transfected MCF7 cells were assessed for mRNA levels of PD1 or PD-L1 by real-time quantitative PCR. […]
# DD1α = test: Ig fusion protein staining of 293T transfectants (flow cytometry); assay type: binding, human; details: cell surface staining
# DD1α, sequence (Q9H7M9 33-311): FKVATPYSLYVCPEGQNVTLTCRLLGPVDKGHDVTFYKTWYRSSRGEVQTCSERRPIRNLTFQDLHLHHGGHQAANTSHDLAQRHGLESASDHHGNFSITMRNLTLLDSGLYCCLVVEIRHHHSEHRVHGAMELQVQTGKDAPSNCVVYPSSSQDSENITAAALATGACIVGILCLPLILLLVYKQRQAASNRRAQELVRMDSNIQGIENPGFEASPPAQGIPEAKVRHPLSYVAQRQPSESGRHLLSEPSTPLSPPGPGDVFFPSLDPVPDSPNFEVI
# Method: as §1
# [3] = system: Jurkat cells expressing DD1α receptor; test: Ig fusion protein binding to Jurkat cells; details: several concentrations; anti-Ig-APC detection
# Method: Jurkat cells overexpressing DD1alpha (transfected with DD1alpha cDNA) or control Jurkat cells were assayed for binding to Ig-fused DD1α or PD-1 proteins. Cells were incubated with several different concentrations of DD1α-Ig (left panels) or PD1-Ig (right panels), and the bound Ig fusion proteins were detected by anti-Ig-APC. Binding amounts were determined by percentage of APC positive cells.
substance,measurement,setting,value
DD1α-Ig: the extracellular region of DD1α fused with the immunoglobulin G Fc segment,binding to PD-1-transfected 293T cells,PD-1 [1],specifically bound
same,binding to TIM-3 transfectants,TIM-3,not to PD-L1 or TIM-3 transfectants
same,pull down of PD-1,PD-1 [2]; lysates from transfected 293T cells,pulled down
same,pull down of endogenous PD-1,PD-1 [2]; lysates of Nutlin-3-treated MCF7 cells,found
same,binding to DD1α-transfected 293T cells,DD1α,specifically bound
same,binding to Jurkat cells expressing DD1α receptor,[3],bind
